Measured values published in publication PMC12337289, “Cryo-EM structure and polar assembly of the PS2 S-layer of Corynebacterium glutamicum” (Proceedings of the National Academy of Sciences of the …, 2025).

Columns and labels:
[1] = target: PS2 S-layer protein, ex vivo S-layer fragments from C. glutamicum ATCC13032 icd::cspB (C. glutamicum); assay: cryo-EM structure; ex vivo PS2 S-layer fragments, 0.02% DDM added before plunging, tilted images at 15° and 30°, single-particle reconstruction with C6 symmetry; lattice of hexamers (C6) joined by trimeric (C3) contacts
[2] = target: the molecule itself; assay: negative-stain electron microscopy of isolated S-layer sheets; isolated S-layer sheets (cleared SDS extractions of C. glutamicum; washed recombinant sheets from E. coli); lattice seen in the power spectrum; sheets also kept after incubation with 10 mM EDTA

stoichiometry N [1] | Molecule | binding result [2]
6 | PS2 S-layer protein, ex vivo S-layer fragments from C. glutamicum ATCC13032 icd::cspB (natural protein) | –
– | PS2 assembly domain (PS2^AD; residues 30 to 483), recombinant (domain or fragment, C. glutamicum, UniProt Q04985 30-483, looked up, PS2 (cspB) of C. glutamicum, residues 30 to 483; the membrane anchoring domain is replaced by a hexahistidine tag; Vector pASK-IBA3plus; also called recombinant soluble PS2^AD; plasmid A231; source: E. coli BL21 (DE3) cytoplasm, gel-like pelleted fraction, washed with 1% DDM and SEC buffer; not shown: hexahistidine, C-terminal, kept) AQETNPTFNITNGFNDADGSTIQPVGPVNHTEETLRDLTDSTGAYLEEFQNGTVEEIVEAYLQVQASADGFDPSEQAAYEAFEAARVRASQELAASAETITKTRESVAYALKVDQEATAAFEAYRNALRDAAISINPDGSINPDTSINLLIDAANAANRTDRAEIEDYAHLYTQTDIALETPQLAYAFQDLKALQAEVDADFEWLGEFGIDQEDGNYVQRYHLPAVEALKAEVDARVAAIEPLRADSIAKNLEAQKSDVLVRQLFLERATAQRDTLRVVEAIFSTSARYVELYENVENVNVENKTLRQHYSALIPNLFIAAVANISELNAADAEAAAYYLHWDTDLATNDEDEAYYKAKLDFAIETYAKILFNGEVWQEPLAYVQNLDAGARQEAADREAARAADEAYRAEQLRIAQEAADAQKAIAEALAKEAEGNNDNSSDNTETGSSDIGS | binds
